What was measured:
[1] = molecular target: FcγRIIIa, on Jurkat effector cells (UniProt P08637); test: cell-based or functional assay
[2] = molecular target: human FcγRIIa-H variant (Histidine at amino acid 131), on Jurkat effector cells (human) (UniProt P12318); test: cell-based or functional assay
Chain of human FcγRIIa-H variant (Histidine at amino acid 131), on Jurkat effector cells (human) (P12318 34-317, change not shown): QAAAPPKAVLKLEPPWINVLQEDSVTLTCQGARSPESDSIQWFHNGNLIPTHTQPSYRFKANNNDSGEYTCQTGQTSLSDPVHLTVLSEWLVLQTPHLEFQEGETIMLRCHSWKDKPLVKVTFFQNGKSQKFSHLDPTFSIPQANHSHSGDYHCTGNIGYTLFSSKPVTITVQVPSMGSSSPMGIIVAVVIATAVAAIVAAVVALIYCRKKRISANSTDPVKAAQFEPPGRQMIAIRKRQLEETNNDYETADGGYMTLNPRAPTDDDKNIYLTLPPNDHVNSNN

Chain of FcγRIIIa, on Jurkat effector cells (P08637 17-254 limits assumed): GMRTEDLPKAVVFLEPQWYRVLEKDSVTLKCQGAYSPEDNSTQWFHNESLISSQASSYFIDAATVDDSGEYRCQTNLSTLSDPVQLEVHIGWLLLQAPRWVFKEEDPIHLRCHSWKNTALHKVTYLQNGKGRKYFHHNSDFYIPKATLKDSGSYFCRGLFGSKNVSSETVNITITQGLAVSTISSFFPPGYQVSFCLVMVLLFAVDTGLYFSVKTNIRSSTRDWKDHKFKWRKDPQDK

| Substance | EC50 (nM), Mean; FcγRIIIa signaling in an ADCC reporter assay (luciferase, HEK-PD-L1 target cells) [1] [nM] | EC50 (nM), Mean; FcγRIIIa signaling in an ADCC reporter assay (luciferase, Raji target cells) [1] [nM] | EC50 (nM), Mean; FcγRIIa signaling in an ADCP reporter assay (luciferase, Raji target cells) [2] [nM] |
| --- | --- | --- | --- |
| avelumab monoclonal antibody, fucosylated | 0.049 |  |  |
| obinutuzumab monoclonal antibody, fucosylated |  | 0.08 | 7.1 |

Reference: patent US20210238310A1
